Earlier results in article PMC2865993.

Molecular target: actin filament (sides) (Oryctolagus cuniculus) (UniProt P68135)

- Kd: 3 µM
Substance: formin (mDia1 FH2) FH2 (from UniProt O08808)
